Consider two molecules from patent US9658208B2, “Methods and G proteins for screening and identifying ligands of G protein-coupled receptors” (Fred Hutchinson Cancer Research Center, priority 2011, dated 2017).

Assay type in all cases: cell-based
For experiment [1], the system named is odorant receptor (OR) that recognizes vanillin and eugenol (Rho20-eugenol receptor). Nature of the experiment: CRE-SEAP reporter gene assay, Gαs-coupled odorant receptor. The following applies: HEK-293 cells, 500 uM eugenol, 48 hours. From the text: A high throughput screening assay was investigated for Gαs-coupled GPCRs based on the CRE-SEAP reporter gene construct, in which five tandem cAMP response elements […] lie upstream of a gene encoding secreted alkaline phosphatase (SEAP) (Durocher et al., Anal Biochem 284: 316-326 (2000)). To ensure the general utility of the CRE-SEAP reporter gene construct for the detection of Gαs-coupled GPCR activation, HEK-293 cells were cotransfected with the CRE-SEAP construct together with expression vectors encoding either a β2-adrenergic receptor or an odorant receptor (OR) that recognizes vanillin and eugenol. Both receptors are GPCRs that couple to Gαs subunits. The HEK-293 cells expressing the β2-adrenergic receptor were grown for 48 hours in the presence or absence of 10 uM isoproterenol. The HEK-293 cells expressing the OR were grown for 48 hours in the presence of 500 uM eugenol. After growing in the presence of the ligands, the cells were assayed for SEAP activity using a fluorescent alkaline phosphatase substrate and a fluorescence plate reader. […]
Following transfection, the cells were maintained for 48 hours in 200 ul serum free media containing either 10 uM isoproterenol (Sigma) or 500 uM eugenol (Sigma). […] Fluorescence was then measured using a CytoFluor 4000 multi well plate reader (Applied Biosystems).

Another experiment concerns the target T1, dopamine D4 receptor (Mus musculus, UniProt P51436).
T1 construct: expressed in transfected cells; host or cells: HEK-293
T1 sequence (P51436 1-387): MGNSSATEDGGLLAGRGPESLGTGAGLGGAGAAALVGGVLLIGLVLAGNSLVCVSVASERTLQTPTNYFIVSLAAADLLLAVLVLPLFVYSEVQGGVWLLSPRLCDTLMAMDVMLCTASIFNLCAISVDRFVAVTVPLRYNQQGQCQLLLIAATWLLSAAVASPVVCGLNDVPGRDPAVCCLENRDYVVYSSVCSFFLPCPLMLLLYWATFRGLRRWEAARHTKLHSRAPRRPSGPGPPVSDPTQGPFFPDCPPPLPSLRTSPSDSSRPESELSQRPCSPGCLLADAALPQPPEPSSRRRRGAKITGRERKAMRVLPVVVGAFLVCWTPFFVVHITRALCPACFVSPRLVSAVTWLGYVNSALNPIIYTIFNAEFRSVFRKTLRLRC
Nature of the experiment: CRE-SEAP reporter gene assay, coupling with dopamine D4. The following applies: HEK-293 cells, 1 uM dopamine. The source says: (§1) The GPCRs examined were those that couple with Gαi/Gαo subunits (serotonin 1b, neuropeptide Y1, leukotriene B4, and dopamine D4), Gαq (GNRH, UDP, and calcium-sensing receptors), and the orphan mammalian sweet taste receptor complex (T1R2 and T1R3) with unknown coupling preference. The Gαs-based chimeric G proteins examined in this example were Gαs-Gαi-5, Gαs-Gαt-13 (SEQ ID NO: 3), Gαs-Gαo-13 (SEQ ID NO: 4), Gαs-Gαi-13 (SEQ ID NO: 5), Gαs-Gαz-6 (SEQ ID NO: 18), Gαs-Gα15-13 (SEQ ID NO: 7), Gαs-Gαk-5 (SEQ ID NO: 2), and Gαs-Gαq-13 (SEQ ID NO: 8). The chimeric G protein constructs were prepared as described herein. For the coupling assay, HEK-293 cells were cotransfected with each of the Gαs-based chimeric G protein constructs of interest together with the CRE-SEAP reporter gene construct and a cDNA encoding the GPCR to be tested. The transfected cells were cultured in the presence or absence of a GPCR ligand and then assayed for SEAP activity.
Chimeric G protein cloning: An insert containing rat Gαs cDNA was cut out using the restriction enzymes SaII and HinDIII, and ligated into pcDNA3.1(−) cut with XhoI and HinDIII. […]
(§2) Following transfection, the cells were maintained for 48 hours in 200 ul serum free media containing GPCR ligand. […] Fluorescence was then measured using a CytoFluor 4000 multi well plate reader (Applied Biosystems).

In experiment [2] the test system is nine GPCRs that do not bind to Gαs (serotonin 1b, neuropeptide Y1, leukotriene B4, dopamine D4, GNRH, UDP, calcium-sensing, T1R2/T1R3). Briefly: CRE-SEAP reporter gene assay, coupling of chimeric G proteins with a variety of GPCRs. The note with it: HEK-293 cells, GPCR ligand 48 hours.
Excerpt: as §1
Chimeric G protein cloning: An insert containing rat Gαs cDNA was cut out using the restriction enzymes SaII and HinDIII, and ligated into pcDNA3.1(−) cut with XhoI and HinDIII. The chimeric G proteins with the desired C-terminal amino acid substitutions from the Gαi, Gαt, Gαo, Gαz, Gα15, Gαk, and Gαq were prepared by PCR using Gαs as a template. More specifically, Gαs was PCR amplified between an internal EcoRI site and the stop codon, with a 3′ HinDIII placed immediately after the stop codon. A different 3′ oligonucleotide was used for each Gαs chimera and contained a 39 bp sequence that encoded the substituted amino acids at the C-terminus selected from the donor Gα subunit.
GPCR cloning: Mouse 5-HT1B, mouse dopamine D4, human GNRH, and human neuropeptide Y1 receptors were cloned by PCR from cDNA templates (ATCC) and ligated into pcDNA 3.1(−) (Invitrogen) for expression in mammalian cells. […]
as §2

Turning to `C=CCc1ccc(O)c(OC)c1` [eugenol], in experiment [1], the SEAP activity result was “increase in SEAP activity”.

B1: Gαs-Gαo-13: Gαs-based chimeric G protein, final 13 C-terminal amino acids substituted with those of Gαo (protein)
chain: MGCLGNSKTEDQRNEEKAQREANKKIEKQLQKDKQVYRATHRLLLLGAGESGKSTIVKQMRILHVNGFNGEGGEEDVPDYASNSDGEKATKVQDIKNNLKEAIETIVAAMSNLVPPVELANPENQFRVDYILSVMNVPNFDFPPEFYEHAKALWEDEGVRACYERSNEYQLIDCAQYFLDKIDVIKQADYVPSDQDLLRCRVLTSGIFETKFQVDKVNFHMFDVGGQRDERRKWIQCFNDVTAIIFVVASSSYNMVIREDNQTNRLQEALNLFKSIWNNRWLRTISVILFLNKQDLLAEKVLAGKSKIEDYFPEFARYTTPEDATPEPGEDPRVTRAKYFIRDEFLRISTASGDGRHYCYPHFTCAVDTENIRRVFNDCRDIIIANNLRGCGLY
modifications: Chimeric protein
notes: Gαs-based chimeric G protein, final 13 C-terminal amino acids substituted with those of Gαo
Turning to B1, the “coupling with dopamine D4 receptor” value in the experiment with dopamine D4 receptor is on record as “permitted a response”. The “GPCRs tested that coupled to the chimera” value in experiment [2] is listed as “seven of the nine”.
